The record followed here is paper PMC10702477.

Substrate in series [1]: Cc1cc(=O)oc2cc(O)cc(O)c12
Nature of the series: RP-HPLC product/acceptor peak ratio, Michaelis-Menten fit. It counts as biochemical, Arabidopsis thaliana. The conditions noted are these: 500 μM UDP-Glc, 50 mM TBT buffer at optimal pH, 293 K; product 5-O-Glc; 20.0 °C.

Substrate in series [2]: O=c1cc(-c2ccccc2)c2c(O)cc(O)cc2o1
The series is described as above. Format: biochemical, Arabidopsis thaliana. As to conditions: 500 μM UDP-Glc, 50 mM TBT buffer at optimal pH, 293 K; product 7-O-Glc; 20.0 °C.

B1: AtUGT78D2 (Arabidopsis thaliana) (protein)
chain: MTKPSDPTRDSHVAVLAFPFGTHAAPLLTVTRRLASASPSTVFSFFNTAQSNSSLFSSGDEADRPANIRVYDIADGVPEGYVFSGRPQEAIELFLQAAPENFRREIAKAETEVGTEVKCLMTDAFFWFAADMATEINASWIAFWTAGANSLSAHLYTDLIRETIGVKEVGERMEETIGVISGMEKIRVKDTPEGVVFGNLDSVFSKMLHQMGLALPRATAVFINSFEDLDPTLTNNLRSRFKRYLNIGPLGLLSSTLQQLVQDPHGCLAWMEKRSSGSVAYISFGTVMTPPPGELAAIAEGLESSKVPFVWSLKEKSLVQLPKGFLDRTREQGIVVPWAPQVELLKHEATGVFVTHCGWNSVLESVSGGVPMICRPFFGDQRLNGRAVEVVWEIGMTIINGVFTKDGFEKCLDKVLVQDDGKKMKCNAKKLKELAYEAVSSKGRSSENFRGLLDAVVNII
One may read the Km as the substrate concentration at which the rate is half of its maximum. The term kcat denotes the maximal rate divided by the concentration of active sites. As for B1, in series [1], the Km was 34.4 ± 4.3 µM and the kcat came out at 0.932 ± 0.04 s⁻¹. Further, in series [2], the Km is 28.9 ± 4.8 µM and the kcat amounted to 0.132 ± 0.00667 s⁻¹.
